The numbers were not newly measured in publication PMC11299584, which cites them from elsewhere.

In this data set the target is ANGPTL3/8 complex (Homo sapiens) (UniProt Q9Y5C1). Put plainly: SPR. For orientation: SPR reads the build-up and loss of mass on a sensor chip optically.
UniProt Q9Y5C1, sequence (Q9Y5C1 17-460, chain 1 of 2): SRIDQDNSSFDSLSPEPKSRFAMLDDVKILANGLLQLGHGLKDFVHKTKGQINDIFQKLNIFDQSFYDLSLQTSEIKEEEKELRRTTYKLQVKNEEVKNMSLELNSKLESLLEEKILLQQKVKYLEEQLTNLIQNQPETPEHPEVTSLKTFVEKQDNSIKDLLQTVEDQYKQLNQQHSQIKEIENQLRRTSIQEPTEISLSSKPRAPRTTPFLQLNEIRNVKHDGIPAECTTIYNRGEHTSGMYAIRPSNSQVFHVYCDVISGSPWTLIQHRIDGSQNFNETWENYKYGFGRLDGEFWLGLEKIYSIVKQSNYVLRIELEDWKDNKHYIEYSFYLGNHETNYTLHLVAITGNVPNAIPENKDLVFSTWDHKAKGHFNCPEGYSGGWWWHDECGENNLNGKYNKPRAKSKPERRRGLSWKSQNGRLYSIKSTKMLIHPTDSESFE
UniProt Q9Y5C1, sequence (Q6UXH0 22-198, chain 2 of 2, further chain): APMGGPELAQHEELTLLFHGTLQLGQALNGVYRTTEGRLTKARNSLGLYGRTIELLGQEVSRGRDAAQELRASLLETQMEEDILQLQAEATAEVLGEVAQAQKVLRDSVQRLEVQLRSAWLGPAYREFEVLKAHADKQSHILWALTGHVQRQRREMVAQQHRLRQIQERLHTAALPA

On to APOA5 (from UniProt Q8C7G5), for which the dissociation constant (Kd) – broadly, the free concentration of one partner at which half of the binding sites on the other are occupied at equilibrium, for simple one-to-one binding – was 0.53 nM.
